Measured values: patent US20230365623A1, “DERIVATISATION OF PEPTIDES AND PROTEINS” (FLOREY INSTITUTE OF NEUROSCIENCE AND MENTAL HEALTH, priority 2020, published 2023)

Assay: Atomic force microscopy studies for fibrillation (glucagon)
Assay type: physicochemical
Settings: 287 mM, Milli-Q water pH 2, 37° C., 4 days
Description: For atomic force microscopy experiments, 287 mM solutions of glucagon and glycoglucagon prepared by dissolving each of glucagon and glycoglucagon obtained in Example 9 in Milli-Q water, adjusted to pH 2 with HCl were incubated at 37° C. for four days. Topographic images of glucagon aggregates were collected with a Dimension iCon Atomic Force Microscopy (Bruker, Billerica, MA, USA). Tapping mode atomic force microscopy (AFM) images were recorded using silicon cantilevers (model RTESPA, Veeco, Santa Barbara, CA) with resonance frequency ˜300 kHz, nominal tip radius 8 nm and nominal spring constant 42 N/m.
Representative AFM height images are shown in FIG. 11, of (A) glucagon (287 mM) and (B) glycoglucagon (287 mM) incubated at 37° C. for 4 days. The vertical colour scale is (A) 6 nm and (B) 3 nm. Scan size: 10×5 μm^2. Each of the images of FIG. 11 are representative of 3-5 scans at different locations with varying scan sizes from 1-10 micron.

## native glucagon: human glucagon peptide (SEQ ID NO:5), synthesised by solid phase synthesis [reference compound]
  fibril formation (AFM): forms fibrils
